PMC10636607 (Cell Reports, 2023)

B1: GAR12 Fab VL D50K (Fab, V domains shown)
VH: EVQLVQSGGGLVQPGGSLRLSCAASGFTFSSYAMSWVRQAPGKGLEWVLSISGSGGSTYYADSVKGRFTISIDNSKKTVYLQMNSLRAEDTAVYYCAKSGEQQLVQAEYFHHWGQGTLVTVSS
VL: DIQMTQSPSTLSASVGDRVTITCRASQSIGRWLAWYQQKPGKAPKLLIYKASSLESGVPSRFSGSGFGTEFTLTISSLQPDDFATYYCQQCDSLLTFGGGTKLEIK
B2: COV44-62 Fab VH R50W (Fab, V domains shown)
VH: QMQLMQSGAEVKKPGASVTVSCKASGDTFSDYRIHWVRQAPGQGLEWMGWMNPKSGDTNFAQKFQGRVTMTRDMSINTAYMTLSGLTFDDTALYYCASLLIVGGFDPLDDFEVWGQGTMVTISS
VL: QSALTQPPSASGSPGQSVTISCSGTSSDVGGYNFVSWYQHHPGKAPKILIYEVTKRPSGVPDRFSGSKSGNTASLTVSGLQAEDEADYYCSSYGGTNNLLFGGGTKLTVL

Key:
[1] = target: His6-tagged SARS-CoV-2 receptor-binding domain (SARS-CoV-2, UniProt P0DTC2); assay: BLI; details: both partners purified
[2] = target: biotinylated SARS-CoV-2 fusion peptide (SARS-CoV-2, biotin on the N-terminus); assay: BLI; details: both partners purified

Row | Binder | fold change in KD against the wild-type Fab [1] [fold] | binding result [2]
1 | B1 | 44 | 
2 | B2 |  | no binding (tested: 33 nM, 100 nM, and 300 nM)
